The source of these data is the RNAGym collection of RNA variant scans (doi:10.1093/nar/gkz1192).

Sequences and labels used below:
B1: CPEB3 Ribozyme (parent)
chain: UAACAGGGGGCCACAGCAGAAGCGUUCACGUCGCAGCCCCUGUCAGAUUCUGGUGAAUCUGCGAAUUCUGCUGUAUAUCUC

In this data set the parent is B1. Description: self-cleavage, relative activity (ratio to wild type); higher = more cleavage; in vitro, sequencing. The method, boiled down:
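After error-prone PCR and barcoding, CPEB3 ribozyme mutant libraries were transcribed with T7 RNA polymerase at 37°C for 5 hours, then given 15 min with DNase I before an EDTA stop, and they cleaved during both steps. Reverse transcription with template switching preceded Illumina sequencing. Relative activity divides a variant's cleaved/total read fraction by the unmutated ribozyme's. At least 5 reads were required per variant, and three batches were averaged.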
For the variant C44G A45U, the self-cleavage came out at 0.13.

As for C44G A45G, the self-cleavage was 0.34. C44A A75G: the self-cleavage was found to be 0.32.

As to C44A U60C, the self-cleavage amounted to 0.17. As to U43G C44U, the self-cleavage is 0.14. Turning to U43C U51A, the self-cleavage worked out at 0.71. As to U43C U51C, the self-cleavage stood at 0.77.

For the variant U43C U51G, the self-cleavage turned out to be 0.75. For U43A G70U, the self-cleavage was found to be 0.54. As to U43A U74A, the self-cleavage amounted to 1.35. For the variant U43A U74C, the self-cleavage is 1.24. For U43A G61A the value was 0.97. As for U43A G61C, the self-cleavage was 0.36. Regarding U43G G53A, the self-cleavage came to 0.3.

For U43A U76A, the self-cleavage was found to be 1.23. For U43A U76C, the self-cleavage was 1.14. For U43A U78G, the self-cleavage worked out at 1.29. With U43A U78C, the self-cleavage worked out at 1.13. For U43A U78A the value was 1.29; for G42A U74C, 0.64; for U43G A75U, 0.35. In the case of U43G A75G, the self-cleavage came to 0.24. For U43G A64G the value was 0.46; for U43G A64U, 0.47.

On to U43G G70A, for which the self-cleavage stood at 0.34. With G42A G55U, the self-cleavage came to 0.08.

Turning to C44G U78C, the self-cleavage stood at 0.44. On to G42U G53A, for which the self-cleavage was determined as 0.31.

Consider U43A U60A, for which the self-cleavage is 0.53. For U43A U60C, the self-cleavage worked out at 0.54. In the case of U43C U78A, the self-cleavage came out at 0.63. In the case of U43C U78C, the self-cleavage worked out at 0.49.

On to U43C U78G, for which the self-cleavage was found to be 0.65. Turning to U43A A77G, the self-cleavage came out at 1.2.

As for U43A A77C, the self-cleavage amounted to 1.18. Take U43A A77U: the self-cleavage worked out at 1.23.

With U43G A65G, the self-cleavage stood at 0.34.

As for U43A A56U, the self-cleavage was found to be 0.88. For U43A A56C the value was 0.73. Consider U43A A56G, for which the self-cleavage stood at 0.97. In the case of G42U U58A, the self-cleavage turned out to be 0.11.

In the case of U43G U51C, the self-cleavage was 0.2.

For the variant U43C U76C, the self-cleavage came to 0.73.

Turning to U43C U76A, the self-cleavage is 0.89.

As for U43C U76G, the self-cleavage came out at 0.69. As for G42A U54C, the self-cleavage turned out to be 0.57. On to G42A U54A, for which the self-cleavage turned out to be 0.45.

Regarding G42A G53C, the self-cleavage is 0.29. Take G42C U49C: the self-cleavage amounted to 0.1. Turning to C44G A57G, the self-cleavage amounted to 0.45. In the case of G42U A75G, the self-cleavage turned out to be 0.19. With U43A G63U, the self-cleavage was 1.26. For U43A G63A the value was 1.13; for U43A A47G, 1.06. In the case of U43A A47U, the self-cleavage came to 0.63. Turning to C44A U66G, the self-cleavage came to 0.23. For C44G C71U the value was 0.15; for U43A G55A, 0.77. For the variant U43C U74A, the self-cleavage is 0.85. Turning to U43C U74C, the self-cleavage was found to be 0.89. Turning to U43C U74G, the self-cleavage is 0.86. For U43G A47U the value was 0.1. In the case of C44A U67C, the self-cleavage was 0.16.

Turning to U43C U66A, the self-cleavage stood at 0.24. Regarding U43C U66C, the self-cleavage was determined as 0.33. Take U43C U66G: the self-cleavage was 0.45. For U43G G46A the value was 0.37. For U43A C71U, the self-cleavage is 0.49. Consider C44A U69G, for which the self-cleavage was found to be 0.13.

Take C44A U69C: the self-cleavage was determined as 0.17. With C44A U72C, the self-cleavage was 0.71. For U43G U67C the value was 0.11. Take U43G U54A: the self-cleavage came to 0.26. As for U43G U54C, the self-cleavage is 0.45. With U43G U80C, the self-cleavage was found to be 0.18. For U43A C62U the value was 0.39; for U43A C68U, 1.15; for G42A A77U, 0.39. As to C44A C68G, the self-cleavage came to 0.12. Take G42A U48C: the self-cleavage amounted to 0.33. Turning to C44G U48C, the self-cleavage was found to be 0.1. Take U43C U67C: the self-cleavage amounted to 0.2.

On to U43C U67A, for which the self-cleavage turned out to be 0.36.

Regarding U43A U80A, the self-cleavage is 1.22. Take U43A U80C: the self-cleavage is 1.15.

Regarding U43C A65U, the self-cleavage came to 0.19. For U43C A65G the value was 0.31; for G42U, 0.31.

In the case of G42C, the self-cleavage was determined as 0.51.

In the case of U43C G70A, the self-cleavage stood at 0.31. For the variant U43C G70C, the self-cleavage was found to be 0.1. As for U43C G70U, the self-cleavage was 0.18. Take C44G U49C: the self-cleavage came to 0.19. On to C44G U49A, for which the self-cleavage turned out to be 0.23. For the variant U43C C81A, the self-cleavage came to 0.92. In the case of U43C C81U, the self-cleavage was found to be 0.7. Regarding G42U A57G, the self-cleavage was found to be 0.19. For U43A A64G the value was 1.04. Consider U43A A64U, for which the self-cleavage came out at 0.51. For G42A C59G, the self-cleavage is 0.23. On to U43A A57C, for which the self-cleavage was 0.47. For U43A A57U, the self-cleavage is 1.11. Turning to U43A A57G, the self-cleavage was found to be 1.05. Regarding U43G U48A, the self-cleavage worked out at 0.2. Regarding U43G U48C, the self-cleavage stood at 0.39. G42C U72C: the self-cleavage is 0.21. With U43C A47G, the self-cleavage worked out at 0.58.

For the variant U43C A47U, the self-cleavage came out at 0.39. For U43C A47C, the self-cleavage was determined as 0.06. For C44A A45G the value was 0.61. For U43C C79A, the self-cleavage was found to be 0.8. For U43C C79U the value was 0.91.

Regarding G42A U69A, the self-cleavage was found to be 0.08. For the variant C44G U72C, the self-cleavage is 0.54. As for C44G U72G, the self-cleavage turned out to be 0.2. Turning to U43A U48C, the self-cleavage came to 0.71.

In the case of G42U A64U, the self-cleavage came to 0.13. As to G42U A77U, the self-cleavage turned out to be 0.37. In the case of U43A U66A, the self-cleavage was found to be 0.69.

Take U43A U66C: the self-cleavage was 0.53. For G42C U43C the value was 0.14; for G42C U43A, 0.33.

Take U43C C59A: the self-cleavage turned out to be 0.12. Turning to U43C C59U, the self-cleavage worked out at 0.52. For G42A U51C the value was 0.29; for U43A G73A, 1.28; for U43A G73U, 1.26. Turning to U43C U58A, the self-cleavage is 0.29.

Take U43C U58C: the self-cleavage was 0.23. As for U43C U58G, the self-cleavage is 0.19. For the variant U43C U48C, the self-cleavage worked out at 0.25.

With U43C U48A, the self-cleavage amounted to 0.29. For U43G U69C the value was 0.35.

In the case of U43C G55U, the self-cleavage was determined as 0.52.

Regarding U43C G55C, the self-cleavage was found to be 0.33.

Consider G42U U74C, for which the self-cleavage is 0.35. As to C44A U48C, the self-cleavage is 0.32.

On to C44G, for which the self-cleavage amounted to 0.52.

Turning to C44A, the self-cleavage turned out to be 0.43.

As to G42A U78C, the self-cleavage turned out to be 0.21. As to U43C U49G, the self-cleavage turned out to be 0.26.

In the case of U43C U49A, the self-cleavage came out at 0.26. For the variant U43C U49C, the self-cleavage turned out to be 0.24. For the variant U43C U54C, the self-cleavage is 0.32.

Regarding U43C U54G, the self-cleavage came to 0.49. Take U43C U54A: the self-cleavage was found to be 0.69. Take U43C U72C: the self-cleavage was 0.76.

Take U43C U72G: the self-cleavage amounted to 0.59. As for U43C U72A, the self-cleavage stood at 0.4.

Regarding G42A U43G, the self-cleavage was found to be 0.32.

In the case of G42A U43C, the self-cleavage was determined as 0.29.

Regarding C44G U60C, the self-cleavage was 0.38. With G42A U76C, the self-cleavage turned out to be 0.41. Turning to G42A U76G, the self-cleavage is 0.26. For U43C the value was 0.67. For U43G the value was 0.28; for U43A, 1.17. C44G A77G: the self-cleavage stood at 0.62. For U43A A45G, the self-cleavage is 0.75. U43A A45U: the self-cleavage is 0.82. Take U43A A45C: the self-cleavage came to 0.39. With C44G A65U, the self-cleavage was 0.1. In the case of U43A G46U, the self-cleavage was found to be 0.45.

As to U43A G46A, the self-cleavage was 0.44.

With U43G A45U, the self-cleavage is 0.18. On to U43G A45G, for which the self-cleavage was 0.19. For the variant G42C U74C, the self-cleavage stood at 0.3.
